The values below come from patent US20160002326A1 (AbbVie / Abbott, published 2016).

Assay [1] concerns the target T1, human IL-17A/A homodimer (human, UniProt Q16552 24-155).
T1 sequence: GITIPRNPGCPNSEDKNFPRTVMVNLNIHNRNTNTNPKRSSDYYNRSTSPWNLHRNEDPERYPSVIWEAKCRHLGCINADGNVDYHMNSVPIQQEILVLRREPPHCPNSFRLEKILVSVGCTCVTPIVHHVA
Briefly: cell-based or functional assay.

Assay [2] addresses monkey (Rhesus/Cynomolgus) TNF (monkey (Rhesus/Cynomolgus), UniProt P48094 77-233). Description: cell-based or functional assay.
For a further assay, the target named is T2, rabbit TNF (rabbit, UniProt P04924 80-235, limits assumed).
T2 sequence (looked up): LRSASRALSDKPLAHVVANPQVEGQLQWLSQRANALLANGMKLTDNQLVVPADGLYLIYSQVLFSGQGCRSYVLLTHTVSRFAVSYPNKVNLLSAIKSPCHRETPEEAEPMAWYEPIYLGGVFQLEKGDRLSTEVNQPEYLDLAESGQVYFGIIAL
Description: cell-based or functional assay.

The target of assay [3] is T3, monkey (Rhesus/Cynomolgus) IL-17 (monkey (Rhesus/Cynomolgus), UniProt F6T3G5 24-155).
T3 sequence: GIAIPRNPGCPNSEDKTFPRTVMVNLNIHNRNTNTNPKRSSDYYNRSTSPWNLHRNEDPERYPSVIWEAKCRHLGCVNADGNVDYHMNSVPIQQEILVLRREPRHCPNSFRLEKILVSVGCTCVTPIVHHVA
Description: cell-based or functional assay.

Another assay deals with T4, rat TNF (rat, UniProt P16599 80-235).
T4 sequence (looked up): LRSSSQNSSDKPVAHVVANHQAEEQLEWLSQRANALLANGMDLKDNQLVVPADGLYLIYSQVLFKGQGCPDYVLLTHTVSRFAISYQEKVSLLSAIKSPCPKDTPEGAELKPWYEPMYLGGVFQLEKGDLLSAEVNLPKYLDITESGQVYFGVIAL
Description: cell-based or functional assay.

The target of assay [4] is T5, human TNF-α (human, UniProt P01375 77-233). Description: cell-based or functional assay.
The target of another assay is T6, mouse TNF (mouse, UniProt P06804 80-235).
T6 sequence (looked up): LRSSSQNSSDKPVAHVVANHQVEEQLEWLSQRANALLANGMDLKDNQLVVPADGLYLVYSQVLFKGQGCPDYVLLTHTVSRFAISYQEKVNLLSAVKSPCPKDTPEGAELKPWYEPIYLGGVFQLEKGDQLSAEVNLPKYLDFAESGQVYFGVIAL
Briefly: cell-based or functional assay.

Another assay deals with T7, rat IL-17 (rat, UniProt Q61453 18-150, limits assumed).
T7 sequence (looked up): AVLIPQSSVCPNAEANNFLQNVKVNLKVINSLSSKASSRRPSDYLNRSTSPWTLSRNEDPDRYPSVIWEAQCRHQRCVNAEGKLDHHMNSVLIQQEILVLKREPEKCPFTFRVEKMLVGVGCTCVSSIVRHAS
Briefly: cell-based or functional assay.

The next assay deals with T8, mouse IL-17 (mouse, UniProt Q62386 26-158, limits assumed).
T8 sequence (looked up): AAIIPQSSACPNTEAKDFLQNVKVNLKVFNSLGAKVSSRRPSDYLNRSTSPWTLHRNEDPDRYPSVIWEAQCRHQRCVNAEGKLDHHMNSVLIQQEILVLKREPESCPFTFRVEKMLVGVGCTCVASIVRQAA
Description: cell-based or functional assay.

The target of assay [5] is T5, human TNF-α. Description: assay not stated; rounded figure in the dose-selection text, assay not stated.
The target in assay [6] is T1, human IL-17A/A homodimer. Briefly: Biacore SPR, recombinant antigen, mean of 3 experiments. Background: In SPR one partner is held on a chip, and binding of the other changes the refractive index at the surface.
Description: (§1) The apparent association rate (ka) and dissociation rate (kd) were derived and used to calculate the overall equilibrium dissociation constant (KD) for the interaction.
Assay [7] addresses T9, human IL-17A/F heterodimer (human, UniProt Q16552 24-155; Q96PD4 31-163).
T9 construct: also called hIL-17A/F
T9 sequence 1: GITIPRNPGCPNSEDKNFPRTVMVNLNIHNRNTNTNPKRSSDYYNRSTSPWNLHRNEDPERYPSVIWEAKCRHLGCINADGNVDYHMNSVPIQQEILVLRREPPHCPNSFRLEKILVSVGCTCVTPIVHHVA
T9 sequence 2: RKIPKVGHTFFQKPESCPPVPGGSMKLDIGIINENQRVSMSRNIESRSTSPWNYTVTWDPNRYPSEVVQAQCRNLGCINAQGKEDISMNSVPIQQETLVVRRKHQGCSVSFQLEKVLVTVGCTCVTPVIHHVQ
The description is as above.
Description: as §1

Assay [8] has as its target T5, human TNF-α. The description is as above.
Description: as §1
Assay [9] deals with T1, human IL-17A/A homodimer. Briefly: cell-based or functional assay. The source holds these as a separate data set.
The target of assay [10] is T9, human IL-17A/F heterodimer. Description: cell-based or functional assay.
Assay [11] addresses T5, human TNF-α. Briefly: cell-based or functional assay. This is another data set of the same source.
The target in assay [12] is T5, human TNF-α. Description: Biacore SPR, recombinant antigen, mean of 3 experiments; exponent as printed.

T5 sequence (P01375 77-233 limits assumed): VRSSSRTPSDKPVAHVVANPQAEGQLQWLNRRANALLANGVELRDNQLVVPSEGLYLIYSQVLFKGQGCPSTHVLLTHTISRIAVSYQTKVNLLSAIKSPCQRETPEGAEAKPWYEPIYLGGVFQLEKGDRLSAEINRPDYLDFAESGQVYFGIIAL
monkey (Rhesus/Cynomolgus) TNF, sequence (P48094 77-233 limits assumed): as the sequence (P01375 77-233 limits assumed) above, with R44T, T72N, R138L counted along it

B1: ABBV-257 anti-human TNF and IL-17 DVD-Ig binding protein (bispecific antibody, human IgG1, kappa, L234A L235A)
heavy: EVQLVQSGAEVKKPGASVKVSCKASGYTFANYGIIWVRQAPGQGLEWMGWINTYTGKPTYAQKFQGRVTMTTDTSTSTAYMELSSLRSEDTAVYYCARKLFTTMDVTDNAMDYWGQGTTVTVSSGGGGSGGGGSEVQLVQSGAEVKKPGSSVKVSCKASGYTFTDYEIHWVRQAPGQGLEWMGVNDPESGGTFYNQKFDGRVTLTADESTSTAYMELSSLRSEDTAVYYCTRYSKWDSFDGMDYWGQGTTVTVSSASTKGPSVFPLAPSSKSTSGGTAALGCLVKDYFPEPVTVSWNSGALTSGVHTFPAVLQSSGLYSLSSVVTVPSSSLGTQTYICNVNHKPSNTKVDKKVEPKSCDKTHTCPPCPAPEAAGGPSVFLFPPKPKDQLMISRTPEVTCVVVDVSHEDPEVKFNWYVDGVEVHNAKTKPREEQYNSTYRVVSVLTVLHQDWLNGKEYKCKVSNKALPAPIEKTISKAKGQPREPQVYTLPPSREEMTKNQVSLTCLVKGFYPSDIAVEWESNGQPENNYKTTPPVLDSDGSFFLYSKLTVDKSRWQQGNVFSCSVLHEALHNHYTQKSLSLSPGK
light: DIQMTQSPSSLSASVGDRVTITCRASQDISQYLNWYQQKPGKAPKLLIYYTSRLQSGVPSRFSGSGSGTDFTLTISSLQPEDFATYFCQQGNTWPPTFGQGTKLEIKRGGSGGGGSGDIQMTQSPSSLSASVGDRVTITCRASSGIISYIDWFQQKPGKAPKRLIYATFDLASGVPSRFSGSGSGTDYTLTISSLQPEDFATYYCRQVGSYPETFGQGTKLEIKRTVAAPSVFIFPPSDEQLKSGTASVVCLLNNFYPREAKVQWKVDNALQSGNSQESVTEQDSKDSTYSLSSTLTLSKADYEKHKVYACEVTHQGLSSPVTKSFNRGEC
modifications: N-linked glycans on the heavy chain at the asparagine commonly modified on IgG1 antibodies (fucosylated biantennary oligosaccharides with 0, 1 or 2 galactose residues)
notes: It says the constant region carries L234A, L235A and also T250Q and M428L; also called Anti-IL-17/TNF DVD-Ig Protein
What is called Kd is the constant that tells how readily two partners part at equilibrium. As a reminder, the koff is the rate constant with which the complex falls apart. As usually defined, the kon is the second-order rate constant of association. For B1, the “IC50, in vitro neutralization assay (In-Vitro Potency)” value with human IL-17A/A homodimer [1] was 26 pM; in [2], 25 pM; with rabbit TNF, more than 1 µM; in assay [3] it was 32 pM; in the assay with rat TNF, more than 1 µM; with human TNF-α [4], 25 pM. Besides, the “IC50, in vitro neutralization assay (In-Vitro Potency)” value was more than 1 µM with mouse TNF, 135 pM in the assay with rat IL-17 and 239 pM in the assay with mouse IL-17. Further, the Kd is 5 pM in the assay with human TNF-α [5], 3 pM with human IL-17A/A homodimer [6], 0.014 nM in assay [7] and 4.9 pM with human TNF-α [8]. In addition, the koff with human IL-17A/A homodimer [6] turned out to be 3e-06 s⁻¹; in assay [7], 4.8e-06 s⁻¹; in the assay with human TNF-α [12], 1.6e-05 s⁻¹. In addition, the kon came out at 1.1e+06 M⁻¹ s⁻¹ with human IL-17A/A homodimer [6], 340000 M⁻¹ s⁻¹ in assay [7] and 3.3e+06 M⁻¹ s⁻¹ with human TNF-α [8]. Also, the “Mean IC50, inhibition of IL-17 dependent induction of IL-6 in fibroblasts” value with human IL-17A/A homodimer [9] stood at 26 pM; in assay [10], 110 pM. Also, the “Mean IC50, inhibition of TNF-induced lethality of L929 cells” value with human TNF-α [11] came out at 25 pM.
